Patent publication US20080311122, “Antagonists of Hmgb1 and/or Rage and Methods of Use Thereof” (Medimmune, LLC, published 2008)

Key:
[1] = molecular target: T1, HMGB1 (native, calf/bovine thymus) (Bos taurus, UniProt P10103 P10103:2-215); test: random DNA not bound; conditions: tags: none; purified from bovine thymus at Medimmune
RAGE/Fc = molecular target: T2, RAGE/Fc (Mus musculus, UniProt Q62151 Q62151:23-340); test: ELISA, CpG-A alone on immobilized RAGE/Fc; conditions: tags: Fc fusion, R&D Systems; chain copies: 2; label: biotin (ELISA)
T2 chain: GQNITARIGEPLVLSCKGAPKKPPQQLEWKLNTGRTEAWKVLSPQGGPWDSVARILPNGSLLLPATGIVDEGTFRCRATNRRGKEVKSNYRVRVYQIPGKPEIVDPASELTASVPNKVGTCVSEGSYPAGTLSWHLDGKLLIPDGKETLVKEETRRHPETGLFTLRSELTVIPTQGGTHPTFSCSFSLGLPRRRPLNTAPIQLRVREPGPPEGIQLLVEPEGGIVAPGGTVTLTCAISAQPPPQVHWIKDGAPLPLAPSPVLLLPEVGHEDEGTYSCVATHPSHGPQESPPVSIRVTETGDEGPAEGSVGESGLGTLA

HMGB1 + RAGE/Fc complex [2] = molecular target: T3, HMGB1 + RAGE/Fc complex (Bos taurus / Mus musculus, UniProt P10103;Q62151 P10103:2-215,Q62151:23-340); test: ELISA; CpG-A associates with immobilized RAGE/Fc only when pre-complexed with HMGB1; CpG-A lowers EC50 of HMGB1-RAGE binding 100-1000 fold; conditions: tags: thymus HMGB1; RAGE Fc fusion (R&D Systems); label: biotin (ELISA)
T3 chain 1: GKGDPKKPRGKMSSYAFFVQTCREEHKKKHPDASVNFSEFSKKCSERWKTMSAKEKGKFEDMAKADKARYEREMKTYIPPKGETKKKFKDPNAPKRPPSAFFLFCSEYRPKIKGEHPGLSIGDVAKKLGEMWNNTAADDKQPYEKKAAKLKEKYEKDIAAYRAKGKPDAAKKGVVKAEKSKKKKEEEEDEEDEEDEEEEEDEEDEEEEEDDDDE
T3 chain 2: T2 chain
Experimental: (§1) CpG ELISA: Proteins or peptides were diluted in PBS to the concentration of 5 μg/ml and coated onto plates at 4° C. o/n. Plates were blocked with 4% dry milk in PBS. Biotin labeled CpG-A alone or in complex with HMGB1 were incubated in the plates at 37° C. for 1 hr. and detected with HRP labeled strep-avidin.

HMGB1 B-box peptide = HMGB1 B-box peptide (Homo sapiens, UniProt P09429 SEQ:1-69); test: affinity comparable to full-length HMGB1; data not shown; stated only as CpG DNA; conditions: protein: synthetic; tags: synthetic peptide, New England Peptide; label: biotin (ELISA)
Experimental: as §1

HMGB1 A-box peptide = molecular target: T4, HMGB1 A-box peptide (Homo sapiens, UniProt P09429 SEQ:1-77); test: as above; conditions: protein: synthetic; tags: synthetic peptide, New England Peptide; label: biotin (ELISA)
T4 sequence: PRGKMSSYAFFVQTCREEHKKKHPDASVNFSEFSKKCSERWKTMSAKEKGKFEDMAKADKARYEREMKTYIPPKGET
Experimental: as §1

[3] = molecular target: T1, HMGB1 (native, calf/bovine thymus); test: apparent Kd; intrinsic tryptophan fluorescence quench, 1.7 uM HMGB1, 1:10 DPBS, 25 C; conditions: tags: none; purified from bovine thymus at Medimmune; label: biotin (ELISA)
Experimental: Tryptophan emission for CpG-A binding to HMGB1: Fluorescence titrations and spectra of HMGB-1 were carried out at 25° C. with a SPEX Fluoromax-3 spectrofluorimeter, monitoring the HMGB-1 intrinsic tryptophan emission at 347 nm (8 nm bandwidth) with 280 nm excitation (3 nm bandwidth) in a masked capped dual-pathlength (0.2×1.0 cm) quartz cell (Hellma Cells, Inc., Jamaica, N.Y.) upon stepwise addition of CpG-A (0.5 mM) to a 1.7 μM solution of HMGB-1 in 1:10 Dulbecco Phosphate Buffered Saline (PBS) solution (Invitrogen, Carlsbad, Calif.). Complex formation between HMGB-1 and the nucleic acid was monitored by the change in the initial fluorescence of the protein. HMGB-1 fractional saturation was inferred from the ratio of observed fluorescence change to maximal change (at saturation), Fₗᵢₘ, for each of the nucleic acid additions. Binding affinity was calculated from graphs of relative fluorescence intensity versus [nucleic acid base]/[protein].The occluded binding site size (n) was derived from the intersection of the extrapolated initial slope with the limiting fluorescence plateau in the equilibrium binding isotherms. The measurements for assessment of Tryptophan emission are reviewed in detail in Lakowicz, 2000, Photochem. Photobiol. 72, 421-437.
The binding of immobilized HMGB1 to soluble CpG-A was determined by ELISA (FIG. 33, top left). […]

[4] = molecular target: T1, HMGB1 (native, calf/bovine thymus); test: non-stimulatory CpG-A control sequence bound; tryptophan fluorescence; conditions: tags: none; purified from bovine thymus at Medimmune
HMGB1 + RAGE/Fc complex [5] = molecular target: T3, HMGB1 + RAGE/Fc complex; test: HMGB1/CpG-B complex failed to augment binding to RAGE; data not shown; conditions: tags: thymus HMGB1; RAGE Fc fusion (R&D Systems)
[6] = molecular target: T1, HMGB1 (native, calf/bovine thymus); test: data not shown; p546 states conversely that HMGB1 binds both A and B class ODN; conditions: tags: none; purified from bovine thymus at Medimmune

B1: random DNA ODN (ssDNA)
DNA: GGTCGTTCCATTTTACTCCAC
[1]
  binding result: no binding

B2: CpG-A (ODN2216) (ssDNA)
DNA: GGGGGACGATCGTCGGGGGG
RAGE/Fc
  binding result: no binding
HMGB1 + RAGE/Fc complex [2]
  binding result: binds
HMGB1 B-box peptide
  binding result: binds
HMGB1 A-box peptide
  binding result: binds
[3]
  Kd: 70 nM

B3: control ODN for CpG-A (non-stimulatory) (ssDNA)
DNA: GGGGGAGCATGCTGGGGGGC
[4]
  binding result: binds

B4: CpG-B (ODN 2006) (ssDNA)
DNA: TCGTCGTTTTGTCGTTTTGTCGTT
HMGB1 + RAGE/Fc complex [5]
  binding result: no binding
[6]
  binding result: no binding
